Results reported in paper PMC9640706, “Structure of the IscB–ωRNA ribonucleoprotein complex, the likely ancestor of CRISPR-Cas9”.

Biological target: T1, OgeuIscB ΔHNH (human gut metagenome (OgeuIscB), UniProt PDB:7XHT_4 1-198+=GGSG+296-496, internal_change)
T1 sequence: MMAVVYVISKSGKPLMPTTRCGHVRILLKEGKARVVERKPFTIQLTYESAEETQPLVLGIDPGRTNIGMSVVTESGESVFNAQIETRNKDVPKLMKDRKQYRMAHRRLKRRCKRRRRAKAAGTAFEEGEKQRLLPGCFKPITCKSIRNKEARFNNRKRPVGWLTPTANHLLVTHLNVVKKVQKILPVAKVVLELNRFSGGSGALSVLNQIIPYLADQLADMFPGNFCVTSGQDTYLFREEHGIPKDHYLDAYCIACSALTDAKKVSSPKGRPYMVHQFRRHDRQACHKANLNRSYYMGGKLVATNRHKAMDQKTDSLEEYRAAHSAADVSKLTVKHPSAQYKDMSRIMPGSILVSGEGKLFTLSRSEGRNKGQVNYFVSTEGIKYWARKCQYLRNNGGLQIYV
Test: cryo-EM (2.6 Å); Mg2+ bound in RuvC site; Purification: 20 mM Tris-HCl pH 8.0, NaCl gradient 0.075-2 M (heparin), 10% glycerol, 5 mM MgCl2, 2 mM DTT; cryo-EM sample buffer not in the material
Details: protein: recombinant; strand 1 ωRNA, strand 2 TS, strand 3 NTS; NTS pairs with TS nt 1-14; ωRNA guide nt 1-27 complementary to TS nt 15-41 (17 bp resolved); TS 3' tail 8 nt

B1: ωRNA (233 nt) + partially double-stranded target DNA (TS 49 nt, NTS 14 nt) (mixed)
RNA: GGAAUUGUGAGCGGAUAACAAUUCCCCGGCUCUUCCAACUUUAUGGUUGCGACCGUAGGUUGAAAGAGCACAGGCUGAGACAUUCGUAAGGCCGAAAGACCGGACGCACCCUGGGAUUUCCCCAGUCCCCGGAACUGCAUAGCGGAUGCCAGUUGAUGGAGCAAUCUAUCAGAUAAGCCAGGGGGAACAAUCACCUCUCUGUAUCAGAGAGAGUUUUACAAAAGGAGGAACGG
DNA 1: GAATGGTTTTCTTCGGGGAATTGTTATCCGCTCACAATTCCTTAGAAAA
DNA 2: GAAGAAAACCATTC
B1: binds.
